Values joined by “and” are separate entries in the source; they are usually repeats but may differ in a detail not shown here. Identical values can stand only once.
Key:
[1] = molecular target: T1, Human FcRn extracellular domain (non-covalent complex of human FcRn alpha chain extracellular domain and … (human, UniProt P55899 24-297; P61769 21-119); experiment: SPR Biacore T200, binder captured via anti-human F(ab')2, FcRn ECD as analyte, pH6; pH 6
T1 construct: also called hFcRn
Experimental: (§1) Biomolecular interaction analysis using surface plasmon resonance technology (SPR) was performed on a Biacore T200 system (GE Healthcare) and binding to human FcRn extracellular domain determined. Human FcRn extracellular domain was provided as a non-covalent complex between the human FcRn alpha chain extracellular domain (SEQ ID NO: 21) and β2 microglobulin (β2M) (SEQ ID NO: 23). Affinipure F(ab′)₂ fragment goat anti-human IgG, F(ab′)₂-specific (Jackson ImmunoResearch Lab, Inc.) at 50 μg/ml in 10 mM NaAc, pH 5 buffer was immobilized on a CMS Sensor Chip via amine coupling chemistry to a capture level between 4000-5000 response units (RU) using HBS-EP⁺(GE Healthcare) as the running buffer.
(§2) The antibody, 1735h5.hFab-scFv.768 was diluted to 0.25 μg/ml in running buffer and an injection 60 s at 10 μl/min was used for capture by the immobilized anti-human F(ab)₂. […] The surface was regenerated at 10 μl/min by 2×60 s 50 mM HCl for the running buffer at pH6 or by 60 s 40 mM HCl and 30 s 10 mM NaOH for the running buffer at pH7.4. The data was analysed using Biacore T200 evaluation software (version 1.0) using the 1:1 binding model with local Rmax.

[2] = molecular target: T2, Cynomolgus monkey FcRn extracellular domain (non-covalent complex of Cynomolgus monkey FcRn alpha chain … (Cynomolgus monkey, UniProt Q8SPV9 24-297; Q8SPW0 21-119); experiment: SPR Biacore T200, binder captured via anti-human F(ab')2, cyno FcRn ECD as analyte, pH6; pH 6
T2 construct: also called non-human primate FcRn
Experimental: (§3) Biomolecular interaction analysis using surface plasmon resonance technology (SPR) was performed on a Biacore T200 system (GE Healthcare) and binding to Cynomolgus monkey FcRn extracellular domain determined. Cynomolgus monkey FcRn extracellular domain was provided as a non-covalent complex between the Cynomolgus monley FcRn alpha chain extracellular domain (SEQ ID NO: 17) and […] (β2M) (SEQ ID NO: 18). Affinipure F(ab′)₂ fragment goat anti-human IgG, F(ab′)₂-specific (Jackson ImmunoResearch Lab, Inc.) at 50 μg/ml in 10 mM NaAc, pH 5 buffer was immobilized on a CMS Sensor Chip via amine coupling chemistry to a capture level between 4000-5000 response units (RU) using HBS-EP⁺ (GE Healthcare) as the running buffer.
(§4) The antibody, 1735h5.hFab-scFv.768 diluted to0.5 μg/ml in running buffer and an injection of 60 s at 10 μl/min was used for capture by the immobilized anti-human F(ab′)₂. […] The surface was regenerated at 10 μl/min by 2×60 s 50 mM HCl for the running buffer at pH6 or by 60 s 40 mM HCl and 30 s 10 mM NaOH for the running buffer at pH7.4.
(§5) The data was analysed using Biacore T200 evaluation software (version 1.0) using the 1:1 binding model with local Rmax.

[3] = molecular target: T2, Cynomolgus monkey FcRn extracellular …; experiment: SPR Biacore T200, binder captured via anti-human F(ab')2, cyno FcRn ECD as analyte, pH7.4; pH 7.4
Experimental: as §3, §4, §5

[4] = molecular target: T1, Human FcRn extracellular domain …; experiment: SPR Biacore T200, binder captured via anti-human F(ab')2, FcRn ECD as analyte, pH6, average of 5; pH 6
Experimental: as §1, §2

[5] = molecular target: T1, Human FcRn extracellular domain …; experiment: SPR Biacore T200, binder captured via anti-human F(ab')2, FcRn ECD as analyte, pH7.4, average of 5; pH 7.4
Experimental: as §1, §2

[6] = molecular target: T2, Cynomolgus monkey FcRn extracellular …; experiment: SPR Biacore T200, binder captured via anti-human F(ab')2, cyno FcRn ECD as analyte, pH6, average of 5; pH 6
Experimental: as §3, §4, §5

[7] = molecular target: T2, Cynomolgus monkey FcRn extracellular …; experiment: SPR Biacore T200, binder captured via anti-human F(ab')2, cyno FcRn ECD as analyte, pH7.4, average of 5; pH 7.4
Experimental: as §3, §4, §5

B1: 1735h5.hFab-scFv.768 (bispecific antibody)
heavy: EVQLVESGGGLVQPGGSLRLSCAASGFSLSTYGVGVGWVRQAPGKGLEWLANIWWDDDKRYNPSLENRFTISRDNAKNSAYLQMNSLRAEDTAVYYCARTPAYYGSHPPFDYWGQGTMVTVSSASTKGPSVFPLAPSSKSTSGGTAALGCLVKDYFPEPVTVSWNSGALTSGVHTFPAVLQSSGLYSLSSVVTVPSSSLGTQTYICNVNHKPSNTKVDKKVEPKSCSGGGGTGGGGSEVQLLESGGGLVQPGGSLRLSCAVSGIDLSNYAINWVRQAPGKCLEWIGIIWASGTTFYATWAKGRFTISRDNSKNTVYLQMNSLRAEDTAVYYCARTVPGYSTAPYFDLWGQGTLVTVSSGGGGSGGGGSGGGGSGGGGSDIQMTQSPSSVSASVGDRVTITCQSSPSVWSNFLSWYQQKPGKAPKLLIYEASKLTSGVPSRFSGSGSGTDFTLTISSLQPEDFATYYCGGGYSSISDTTFGCGTKVEIKRT
light: DIQMTQSPSSLSASVGDRVTITCRTSEDIYTNLAWYQQKPGKVPKLLIYVAKTLQEGVPSRFSGSGSGTHYTLTISSLQPEDVATYYCLQGFKFPWTFGGGTKVEIKRTVAAPSVFIFPPSDEQLKSGTASVVCLLNNFYPREAKVQWKVDNALQSGNSQESVTEQDSKDSTYSLSSTLTLSKADYEKHKVYACEVTHQGLSSPVTKSFNRGEC
notes: Anti-FcRn Fab (1638.g49 V-regions) fused at the C-terminus of CH1 to an anti-albumin disulphide stabilised scFv; expressed in CHO DG44; Monovalent for FcRn; also called Fab-dsscFv fusion protein comprising the 1638.g49 variable domains; anti-hFcRn 1735h5.hFab-scFv.768
[1]
  kon: 1.2e+06 M⁻¹ s⁻¹ and 1.1e+06 M⁻¹ s⁻¹ (3×)
[2]
  kon: 1.26e+06 M⁻¹ s⁻¹ and 1.24e+06 M⁻¹ s⁻¹
[3]
  kon: 1e+06 M⁻¹ s⁻¹ (2×) and 999000 M⁻¹ s⁻¹
[4]
  Kd: 0.16 nM
  koff: 0.000181 s⁻¹
  kon: 1.13e+06 M⁻¹ s⁻¹
[5]
  Kd: 0.0458 nM
  koff: 3.94e-05 s⁻¹
  kon: 861000 M⁻¹ s⁻¹
[6]
  Kd: 0.158 nM
  koff: 0.000197 s⁻¹
  kon: 1.25e+06 M⁻¹ s⁻¹
[7]
  Kd: 0.045 nM
  koff: 4.52e-05 s⁻¹
  kon: 1e+06 M⁻¹ s⁻¹

From patent publication US20180127498A1 (UCB, published 2018)
